{"source": "paper PMC12416549", "about": "(2024)", "target": "T1, TNFR1 (Homo sapiens, UniProt P19438)", "T1 chain": "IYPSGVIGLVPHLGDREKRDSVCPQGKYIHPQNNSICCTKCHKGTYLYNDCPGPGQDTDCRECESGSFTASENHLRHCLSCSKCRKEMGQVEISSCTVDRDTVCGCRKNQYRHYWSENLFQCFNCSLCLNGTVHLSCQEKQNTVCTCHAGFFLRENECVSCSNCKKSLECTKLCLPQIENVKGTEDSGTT", "experiment": "yeast display SC50", "data": [{"binder": "K103L (designed binder) MTLQELLREEALRRAEAEAFRYALELLAEKFPEQKEYLLDLAEEIESQIRSLSGVDVEDVRKFLDKEWAWVKELLAEHPAELAEVEAARAARLAELRAEVEALVAA", "values": [{"measurement": "apparent Kd (screen)", "value": 1.86, "unit": "nM"}]}, {"binder": "E84A (designed binder) MTLQELLREEALRRAEAEAFRYALELLAEKFPEQKEYLLDLAEEIESQIRSLSGVDVEDVRKFLDKEWAWVKELLAEHPAELAAVEAARAARLAELRAEVEAKVAA", "values": [{"measurement": "apparent Kd (screen)", "value": 0.718, "unit": "nM"}]}, {"binder": "K66D (designed binder) MTLQELLREEALRRAEAEAFRYALELLAEKFPEQKEYLLDLAEEIESQIRSLSGVDVEDVRKFLDDEWAWVKELLAEHPAELAEVEAARAARLAELRAEVEAKVAA", "values": [{"measurement": "apparent Kd (screen)", "value": 0.49, "unit": "nM"}]}, {"binder": "K103C (designed binder) MTLQELLREEALRRAEAEAFRYALELLAEKFPEQKEYLLDLAEEIESQIRSLSGVDVEDVRKFLDKEWAWVKELLAEHPAELAEVEAARAARLAELRAEVEACVAA", "values": [{"measurement": "apparent Kd (screen)", "value": 0.539, "unit": "nM"}]}, {"binder": "K72E (designed binder) MTLQELLREEALRRAEAEAFRYALELLAEKFPEQKEYLLDLAEEIESQIRSLSGVDVEDVRKFLDKEWAWVEELLAEHPAELAEVEAARAARLAELRAEVEAKVAA", "values": [{"measurement": "apparent Kd (screen)", "value": 0.869, "unit": "nM"}]}, {"binder": "Q4H (designed binder) MTLHELLREEALRRAEAEAFRYALELLAEKFPEQKEYLLDLAEEIESQIRSLSGVDVEDVRKFLDKEWAWVKELLAEHPAELAEVEAARAARLAELRAEVEAKVAA", "values": [{"measurement": "apparent Kd (screen)", "value": 0.79, "unit": "nM"}]}, {"binder": "A42H (designed binder) MTLQELLREEALRRAEAEAFRYALELLAEKFPEQKEYLLDLHEEIESQIRSLSGVDVEDVRKFLDKEWAWVKELLAEHPAELAEVEAARAARLAELRAEVEAKVAA", "values": [{"measurement": "apparent Kd (screen)", "value": 3, "unit": "nM"}]}, {"binder": "D40N (designed binder) MTLQELLREEALRRAEAEAFRYALELLAEKFPEQKEYLLNLAEEIESQIRSLSGVDVEDVRKFLDKEWAWVKELLAEHPAELAEVEAARAARLAELRAEVEAKVAA", "values": [{"measurement": "apparent Kd (screen)", "value": 2.48, "unit": "nM"}]}, {"binder": "L96K (designed binder) MTLQELLREEALRRAEAEAFRYALELLAEKFPEQKEYLLDLAEEIESQIRSLSGVDVEDVRKFLDKEWAWVKELLAEHPAELAEVEAARAARLAEKRAEVEAKVAA", "values": [{"measurement": "apparent Kd (screen)", "value": 0.49, "unit": "nM"}]}, {"binder": "L75W (designed binder) MTLQELLREEALRRAEAEAFRYALELLAEKFPEQKEYLLDLAEEIESQIRSLSGVDVEDVRKFLDKEWAWVKELWAEHPAELAEVEAARAARLAELRAEVEAKVAA", "values": [{"measurement": "apparent Kd (screen)", "value": 1.16, "unit": "nM"}]}, {"binder": "A76M (designed binder) MTLQELLREEALRRAEAEAFRYALELLAEKFPEQKEYLLDLAEEIESQIRSLSGVDVEDVRKFLDKEWAWVKELLMEHPAELAEVEAARAARLAELRAEVEAKVAA", "values": [{"measurement": "apparent Kd (screen)", "value": 0.869, "unit": "nM"}]}, {"binder": "E5F (designed binder) MTLQFLLREEALRRAEAEAFRYALELLAEKFPEQKEYLLDLAEEIESQIRSLSGVDVEDVRKFLDKEWAWVKELLAEHPAELAEVEAARAARLAELRAEVEAKVAA", "values": [{"measurement": "apparent Kd (screen)", "value": 0.653, "unit": "nM"}]}, {"binder": "K66C (designed binder) MTLQELLREEALRRAEAEAFRYALELLAEKFPEQKEYLLDLAEEIESQIRSLSGVDVEDVRKFLDCEWAWVKELLAEHPAELAEVEAARAARLAELRAEVEAKVAA", "values": [{"measurement": "apparent Kd (screen)", "value": 1.4, "unit": "nM"}]}, {"binder": "Q4A (designed binder) MTLAELLREEALRRAEAEAFRYALELLAEKFPEQKEYLLDLAEEIESQIRSLSGVDVEDVRKFLDKEWAWVKELLAEHPAELAEVEAARAARLAELRAEVEAKVAA", "values": [{"measurement": "apparent Kd (screen)", "value": 0.718, "unit": "nM"}]}, {"binder": "R97C (designed binder) MTLQELLREEALRRAEAEAFRYALELLAEKFPEQKEYLLDLAEEIESQIRSLSGVDVEDVRKFLDKEWAWVKELLAEHPAELAEVEAARAARLAELCAEVEAKVAA", "values": [{"measurement": "apparent Kd (screen)", "value": 1.05, "unit": "nM"}]}, {"binder": "D59W (designed binder) MTLQELLREEALRRAEAEAFRYALELLAEKFPEQKEYLLDLAEEIESQIRSLSGVDVEWVRKFLDKEWAWVKELLAEHPAELAEVEAARAARLAELRAEVEAKVAA", "values": [{"measurement": "apparent Kd (screen)", "value": 1.05, "unit": "nM"}]}, {"binder": "A105H (designed binder) MTLQELLREEALRRAEAEAFRYALELLAEKFPEQKEYLLDLAEEIESQIRSLSGVDVEDVRKFLDKEWAWVKELLAEHPAELAEVEAARAARLAELRAEVEAKVHA", "values": [{"measurement": "apparent Kd (screen)", "value": 0.49, "unit": "nM"}]}, {"binder": "A87L (designed binder) MTLQELLREEALRRAEAEAFRYALELLAEKFPEQKEYLLDLAEEIESQIRSLSGVDVEDVRKFLDKEWAWVKELLAEHPAELAEVELARAARLAELRAEVEAKVAA", "values": [{"measurement": "apparent Kd (screen)", "value": 0.653, "unit": "nM"}]}, {"binder": "V55M (designed binder) MTLQELLREEALRRAEAEAFRYALELLAEKFPEQKEYLLDLAEEIESQIRSLSGMDVEDVRKFLDKEWAWVKELLAEHPAELAEVEAARAARLAELRAEVEAKVAA", "values": [{"measurement": "apparent Kd (screen)", "value": 2.73, "unit": "nM"}]}, {"binder": "V60R (designed binder) MTLQELLREEALRRAEAEAFRYALELLAEKFPEQKEYLLDLAEEIESQIRSLSGVDVEDRRKFLDKEWAWVKELLAEHPAELAEVEAARAARLAELRAEVEAKVAA", "values": [{"measurement": "apparent Kd (screen)", "value": 12.5, "unit": "nM"}]}, {"binder": "E81D (designed binder) MTLQELLREEALRRAEAEAFRYALELLAEKFPEQKEYLLDLAEEIESQIRSLSGVDVEDVRKFLDKEWAWVKELLAEHPADLAEVEAARAARLAELRAEVEAKVAA", "values": [{"measurement": "apparent Kd (screen)", "value": 0.718, "unit": "nM"}]}, {"binder": "E9H (designed binder) MTLQELLRHEALRRAEAEAFRYALELLAEKFPEQKEYLLDLAEEIESQIRSLSGVDVEDVRKFLDKEWAWVKELLAEHPAELAEVEAARAARLAELRAEVEAKVAA", "values": [{"measurement": "apparent Kd (screen)", "value": 0.593, "unit": "nM"}]}, {"binder": "E86L (designed binder) MTLQELLREEALRRAEAEAFRYALELLAEKFPEQKEYLLDLAEEIESQIRSLSGVDVEDVRKFLDKEWAWVKELLAEHPAELAEVLAARAARLAELRAEVEAKVAA", "values": [{"measurement": "apparent Kd (screen)", "value": 3, "unit": "nM"}]}, {"binder": "Q4I (designed binder) MTLIELLREEALRRAEAEAFRYALELLAEKFPEQKEYLLDLAEEIESQIRSLSGVDVEDVRKFLDKEWAWVKELLAEHPAELAEVEAARAARLAELRAEVEAKVAA", "values": [{"measurement": "apparent Kd (screen)", "value": 0.446, "unit": "nM"}]}, {"binder": "K103Q (designed binder) MTLQELLREEALRRAEAEAFRYALELLAEKFPEQKEYLLDLAEEIESQIRSLSGVDVEDVRKFLDKEWAWVKELLAEHPAELAEVEAARAARLAELRAEVEAQVAA", "values": [{"measurement": "apparent Kd (screen)", "value": 0.539, "unit": "nM"}]}, {"binder": "V55S (designed binder) MTLQELLREEALRRAEAEAFRYALELLAEKFPEQKEYLLDLAEEIESQIRSLSGSDVEDVRKFLDKEWAWVKELLAEHPAELAEVEAARAARLAELRAEVEAKVAA", "values": [{"measurement": "apparent Kd (screen)", "value": 1.86, "unit": "nM"}]}, {"binder": "R92K (designed binder) MTLQELLREEALRRAEAEAFRYALELLAEKFPEQKEYLLDLAEEIESQIRSLSGVDVEDVRKFLDKEWAWVKELLAEHPAELAEVEAARAAKLAELRAEVEAKVAA", "values": [{"measurement": "apparent Kd (screen)", "value": 0.593, "unit": "nM"}]}, {"binder": "Y37T (designed binder) MTLQELLREEALRRAEAEAFRYALELLAEKFPEQKETLLDLAEEIESQIRSLSGVDVEDVRKFLDKEWAWVKELLAEHPAELAEVEAARAARLAELRAEVEAKVAA", "values": [{"measurement": "apparent Kd (screen)", "value": 10.4, "unit": "nM"}]}, {"binder": "L39S (designed binder) MTLQELLREEALRRAEAEAFRYALELLAEKFPEQKEYLSDLAEEIESQIRSLSGVDVEDVRKFLDKEWAWVKELLAEHPAELAEVEAARAARLAELRAEVEAKVAA", "values": [{"measurement": "apparent Kd (screen)", "value": 2.25, "unit": "nM"}]}, {"binder": "V57I (designed binder) MTLQELLREEALRRAEAEAFRYALELLAEKFPEQKEYLLDLAEEIESQIRSLSGVDIEDVRKFLDKEWAWVKELLAEHPAELAEVEAARAARLAELRAEVEAKVAA", "values": [{"measurement": "apparent Kd (screen)", "value": 2.73, "unit": "nM"}]}, {"binder": "Q4V (designed binder) MTLVELLREEALRRAEAEAFRYALELLAEKFPEQKEYLLDLAEEIESQIRSLSGVDVEDVRKFLDKEWAWVKELLAEHPAELAEVEAARAARLAELRAEVEAKVAA", "values": [{"measurement": "apparent Kd (screen)", "value": 0.49, "unit": "nM"}]}, {"binder": "K103R (designed binder) MTLQELLREEALRRAEAEAFRYALELLAEKFPEQKEYLLDLAEEIESQIRSLSGVDVEDVRKFLDKEWAWVKELLAEHPAELAEVEAARAARLAELRAEVEARVAA", "values": [{"measurement": "apparent Kd (screen)", "value": 0.446, "unit": "nM"}]}, {"binder": "S51I (designed binder) MTLQELLREEALRRAEAEAFRYALELLAEKFPEQKEYLLDLAEEIESQIRILSGVDVEDVRKFLDKEWAWVKELLAEHPAELAEVEAARAARLAELRAEVEAKVAA", "values": [{"measurement": "apparent Kd (screen)", "value": 1.86, "unit": "nM"}]}, {"binder": "E95A (designed binder) MTLQELLREEALRRAEAEAFRYALELLAEKFPEQKEYLLDLAEEIESQIRSLSGVDVEDVRKFLDKEWAWVKELLAEHPAELAEVEAARAARLAALRAEVEAKVAA", "values": [{"measurement": "apparent Kd (screen)", "value": 0.593, "unit": "nM"}]}, {"binder": "S53T (designed binder) MTLQELLREEALRRAEAEAFRYALELLAEKFPEQKEYLLDLAEEIESQIRSLTGVDVEDVRKFLDKEWAWVKELLAEHPAELAEVEAARAARLAELRAEVEAKVAA", "values": [{"measurement": "apparent Kd (screen)", "value": 0.49, "unit": "nM"}]}]}
